The record followed here is US20240350583A1, “COMPOSITION FOR PREVENTING OR TREATING FIBROTIC DISEASES, COMPRISING HAPLN1” (Chung Ang University Industry Academic Cooperation …, priority 2021, published 2024).

The test system of the test is human kidney renal tubule cell (Human Kidney 2, HK-2). The test can be described thus: Fibrosis prevention in HK-2 cells (simultaneous TGFβ1 and drug), αSMA western blot. To be noted: rhHAPLN1 50 ng/ml simultaneously with TGF-β (5 ng/ml), 24 hours. The format is cell-based. How it is done:
(1) Human kidney renal tubule cells (HK-2) were seeded (1.0×10^5 cells/well) in a 6-well plate according to the experimental scheme of FIG. 6A and incubated in RPMI 1640 Medium (11875-093, Gibco) including 10% FBS for 24 hours in an incubator at 37° C. 5% CO2.
(2) The plates were then washed several times with PBS and each well of the plate was simultaneously treated with TGF31 (5 ng/ml) and the composition of the present disclosure (rhHAPLN1 protein content of 0, 5, 10, 20, and 50 ng/ml) and pirfenidone 0.2 mg/mL (200 μg/mL) and incubated for 24 hours.
(3) Each sample was then washed several times with ice-cold PBS, treated with radioimmunoprecipitation assay (RIPA) lysis and extraction buffer (Thermo Scientific) including protease and phosphatase inhibitors, scraped with a scraper, and transferred to an E-tube.
(4) By centrifugation (12000 rpm, 20 minutes, 4° C.), only the supernatant was obtained, and bicinchoninic acid (BCA) assay was performed to obtain quantitative protein values.
(5) After quantification using the obtained quantitative value, cooking was performed at 100° C. for 3 minutes and then stored in a −20° C. refrigerator.
(6) Using a 4% to 15% precast acrylamide PAGE gel, proteins were loaded at 10 μg per lane and run (80V-20 minutes, 120V-1 hour 30 minutes). […]
(11) After washing three times with TBST for 10 minutes each, the samples were detected by Chemidoc.
For orientation: A western blot detects proteins with antibodies after separation by electrophoresis.

Entries after “also recorded” stand apart in the source; their conditions may differ.

B1: rhHAPLN1: recombinant human HAPLN1 protein of SEQ ID NO: 1 produced in CHO-K1 cells, stabilized in acetic acid buffer, sucrose, PS80, pH 5.0 (protein, listed as Homo sapiens)
chain: MKSLLLLVLISICWADHLSDNYTLDHDRAIHIQAENGPHLLVEAEQAKVFSHRGGNVTLPCKFYRDPTAFGSGIHKIRIKWTKLTSDYLKEVDVFVSMGYHKKTYGGYQGRVFLKGGSDSDASLVITDLTLEDYGRYKCEVIEGLEDDTVVVALDLQGVVFPYFPRLGRYNLNFHEAQQACLDQDAVIASFDQLYDAWRGGLDWCNAGWLSDGSVQYPITKPREPCGGQNTVPGVRNYGFWDKDKSRYDVFCFTSNFNGRFYYLIHPTKLTYDEAVQACLNDGAQIAKVGQIFAAWKILGYDRCDAGWLADGSVRYPISRPRRRCSPTEAAVRFVGFPDKKHKLYGVYCFRAYN
Consider B1, for which the “fibrosis prevention (αSMA) compared to pirfenidone at 200 μg/mL (FIG. 6B, FIG. 6C)” value is “superior fibrosis prevention action compared to pirfenidone; also recorded: significantly higher” and the “fibrosis prevention efficacy (αSMA) compared to composition that does not include rhHAPLN1 protein (FIG. 6C)” value is reported as “superior fibrosis prevention efficacy”.
